Test results as given in article doi:10.1101/2025.02.19.639038 (bioRxiv, 2025).
“And” between values parts separate entries of the source, which are not always exact repeats. Equal entries are not always repeated.

Columns and labels:
[1] = molecular target: Drp6-4A (Drp6 GKFR-AAAA), N-terminal His6 tag (Tetrahymena thermophila) (UniProt Q38KF5); assay: SEC
[2] = molecular target: Drp6-4A (Drp6 GKFR-AAAA), N-terminal His6 tag (Tetrahymena thermophila) (UniProt Q38KF5)
SEC = molecular target: the molecule itself; assay: SEC

Row | percent eluted in the tetramer peak (peak2) [1] [%] | stoichiometry N [1] | GTP hydrolysis rate (colorimetric Pi release, 1 μM protein, 1 mM GTP) [2] [μM /μM/min] | Molecule | stoichiometry N (SEC)
1 | 19 | 4 | 0.83 | Drp6-4A (Drp6 GKFR-AAAA), N-terminal His6 tag (from UniProt Q38KF5 1-710) (natural protein) | –
2 | – | – | – | Dynamin-related protein 6 (Drp6), wild type, N-terminal His6 tag (natural protein, Tetrahymena thermophila, UniProt Q38KF5 1-710, looked up) MTNTIVPANNFQNIKEVIKVVNKLRDFGIESDKIQLPKIVVIGVQSSGKSSLLEQIVQLDFLPRGTGVVTRCPLEIRLIEVTNQDSDFKPYAYFFEERQKIFHDFELVKKEIQKITNDFAGPGKKIVDKVITLTIYQAQCPTLTLIDLPGMTLNSVGDQKDIERVTQDMTKKYIIEKTTIILCVIPINQDLENSLALNLARSVDENGERTIGVLTMIDIMNPGTNCENVLKNRQIPLLHRYYGMKPRSQKDINENVSVQEAIQREQLYFTSHQIYSMYPEYTGTNALTNKLSTLLDSHIRTFLPSIHKKIKMTLSERIKERQQLGNEFPTEVTQQLYELTNIINTSLNLFKQAMTNYDASEIQNIGKIKVDERVGKSYADFLFDKYLLICKKISEEQVFKVKMKDLIKELGKFRVQVNGFLPFEVFESQIKQKINLYETEAIVILEQLKEHVRKVLNHCIDLFPFPNNKIKKIMQDILQNFVQTEYNFTSSHIKTAFYCYKDCICSKMIDIHETESKLKQNHVYLQNDNQQKKVLYEYISKNKSFMEWTVQEIMIKAENLCNVPITMSDLQNTYTKAEEKVQNTDEVLRYSIIYYKYMDNFRKQISDQIPQCIQSLFINSLCKNLMVKVFQAIQSKEYKEIIEKNLKEDEIIATKRAKVIQSIQKLAKANDRLERLIDQGQNCNHMLSTTYGDEENYIHESLEDSDGIDD | ≥ 6 protomers and 4
